The values below come from patent US20230340114A1 (IMMUNE ONC THERAPEUTICS, published 2023).

Assay [1] has as its target T1, human LILRB4 expressed on cells (human, UniProt Q8NHJ6 22-448).
T1 construct: whole, on cells; also called ILT3; CD85k
Nature of the assay: FACS (Geo MFI) on normal human monocytes; panel assigned to monocytes by the order in legend paragraph 86.

Assay [2] deals with T1, human LILRB4 expressed on cells. Nature of the assay: cell-based or functional assay.
In assay [3] the target is T2, flag-tagged cynomolgus monkey LILRB4 expressed on CHO-K1 cells (cynomolgus monkey).
T2 construct: whole, on cells; also called cyno LILRB4
Nature of the assay: FACS, CHO-stable cells expressing cyno LILRB4.

Assay [4] addresses T1, human LILRB4 expressed on cells. The assay is described as follows: FACS (Geo MFI) on THP-1 cells; panel assigned to THP-1 by the order in legend paragraph 86.
Assay [5] has the same target. The assay is described as follows: FACS, CHO-stable cells expressing human LILRB4. On the technique in general: A flow cytometer gives signals particle by particle.
Assay [6] addresses T3, recombinant human LILRB4 protein (Sino Biological, cat #16742-H08H) (human, UniProt Q8NHJ6 22-259).
T3 construct: extracellular domain; also called LILRB4 recombinant protein (Sino Biological); Human LILRB4 ECD-his; not shown: his tag
Nature of the assay: BLI (Gator Bio), bispecific captured on anti-human Fc probe, human LILRB4 in solution, 1:1 global fit. Here is the method: (§1) Binding affinities of second-generation bispecific antibodies were measured to recombinant human CD3e (Acro, cat #CDE-H5223), cyno CD3e (Acro, cat #CDE-C5226), human LILRB4 (Sino Biological, cat #16742-H08H), and cyno LILRB4 (Acro, cat #CDK-C5227) by Bio-Layer Interferometry (BLI) using an instrument from Gator Bio. Bispecific antibodies were captured using an immobilized anti-human Fc antibody (HFC) probe (Gator Bio, cat #PL168-160003) at 5 ug/mL load. […] Binding affinity constants were determined using a 1:1 fitting model (Global Fit) with Gator's data analysis software 1.6.1.1203, and the KD was calculated using the ratio Kdis/Kon.

Assay [7] concerns the target T4, recombinant cyno CD3e (Acro, cat #CDE-C5226) (cynomolgus monkey, UniProt Q95LI5 22-117).
T4 sequence (looked up): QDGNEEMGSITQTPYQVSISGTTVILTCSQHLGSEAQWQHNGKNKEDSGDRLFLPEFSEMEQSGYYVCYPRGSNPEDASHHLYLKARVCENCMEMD
The assay is described as follows: BLI (Gator Bio), bispecific captured on anti-human Fc probe, cyno CD3e in solution, 1:1 global fit. Here is the method: as §1

Assay [8] deals with T1, human LILRB4 expressed on cells. The assay is described as follows: FACS on LILRB4+ THP-1 cells, Alexa 647 anti-human IgG Fc detection. Here is the method: Binding of first and second generation bispecifics to CD3 or LILRB4 was measured by FACS on Jurkat cells or THP-1 cells. To measure binding of bispecifics to THP-1 cells, THP-1 cells were first incubated with human Fc blocker (BD Pharmingen Catalog No. 564220) at 10 ug per one million cells at room temperature for 10 minutes, followed by incubated with serially diluted bispecifics for 30 minutes on ice. Cells were washed twice with BSA staining buffer (BD Pharmingen Catalog No. 554657) and incubated with secondary Alexa 647 conjugated anti-human IgG Fc monoclonal antibody (Biolegend Catalog No. 409306) at 5 ug/mL for 30 minutes on ice. After final wash, 7-AAD was applied to exclude dead cells. To measure binding of first generation bispecifics to Jurkat cells, each bispecific was diluted in buffer including 1% BSA (5-fold dilution series, 400 nM highest concentration) and incubated with cells for 30 minutes at 4° C. Then bispecifics were stained with Alexa 647 anti-human IgG Fc at 5 ug/mL at 4° C. for 0.5 hours before analysis.

Assay [9] addresses T5, recombinant cyno LILRB4 (Acro, cat #CDK-C5227) (cynomolgus monkey).
T5 construct: extracellular domain; also called cynomolgus monkey LILRB4 ECD-his recombinant protein (ACRObiosystems)
Nature of the assay: BLI (Gator Bio), bispecific captured on anti-human Fc probe, cyno LILRB4 in solution, 1:1 global fit. Here is the method: as §1

The next assay has as its target T6, CD3 on Jurkat cells (UniProt P07766 23-207).
T6 construct: whole, on cells; on cells it stands in the whole CD3/TCR complex; also called CD3+ Jurkat cells
Nature of the assay: FACS on CD3+ Jurkat cells; estimated, curve did not reach a plateau.

Assay [10] concerns the target recombinant human CD3e (Acro, cat #CDE-H5223) (human, UniProt P07766 23-126). The assay is described as follows: BLI (Gator Bio), bispecific captured on anti-human Fc probe, human CD3e in solution, 1:1 global fit. Here is the method: as §1
Assay [11] deals with T1, human LILRB4 expressed on cells. Nature of the assay: cell-based or functional assay. The source holds these as a separate data set.

Chain of recombinant human CD3e (Acro, cat #CDE-H5223) (P07766 23-126 limits assumed): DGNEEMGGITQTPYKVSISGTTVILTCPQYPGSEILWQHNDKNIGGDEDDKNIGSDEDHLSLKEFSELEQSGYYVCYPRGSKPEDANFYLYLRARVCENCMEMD
T6 sequence (P07766 23-207): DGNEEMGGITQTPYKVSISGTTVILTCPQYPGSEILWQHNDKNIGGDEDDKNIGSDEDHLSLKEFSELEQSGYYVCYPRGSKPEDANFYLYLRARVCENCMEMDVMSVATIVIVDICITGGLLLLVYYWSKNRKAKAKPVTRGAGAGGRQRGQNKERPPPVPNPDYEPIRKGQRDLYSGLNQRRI

B1: H7K3m5 (antibody, V domains shown)
VH: EVQLVESGGGLVQPGGSLRLSCAASGFSLSSSYWISWVRQAPGKGLEWIGSIDSGSVGITYYATWVKGRFTISRDNSKNTLYLQMNSLRAEDTAVYYCARHGDNWALDLWGQGTLVTVSS
VL: DIQMTQSPSTLSASVGDRVTITCRASQSISSWLAWYQQKPGKAPKLLIYKASTLASGVPSRFSGSGSGTEFTLTISSLQPDDFATYYCQHGYIRGDLDNVFGGGTKVEIK
notes: Full-length IgG; human IgG1 is used as its isotype control; Only variable regions are tied to the name; Wild type (fucosylated) form unless said otherwise; also called variant 9; K3m5 (N/S)
The EC50 (read off the curve) is the concentration giving half of the maximal effect. As a reminder, the EC50 is the concentration needed to bring the measured effect to its halfway point. With B1, the “EC50 (read off the curve)” value is roughly 300 pM in assay [1] and roughly 500 pM in assay [4]. Further, in assay [2], the “T-cell cytotoxicity against THP-1-GFP cells, mean EC50 (n=3)” value is 208 pM. Besides, the EC50 is 1120 pM in assay [3] and 415 pM in [5].

B2: 4-3ab Q1E S91A (bispecific antibody, human IgG1, kappa, L234A L235A)
heavy 1: not shown
heavy 2: EVQLVESGGGLVQPGGSLRLSCAASGFSLSSSYWISWVRQAPGKGLEWIGSIDSGSVGITYYATWVKGRFTISRDNSKNTLYLQMNSLRAEDTAVYYCARHGDNWALDLWGQGTLVTVSSASTKGPSVFPLAPSSKSTSGGTAALGCLVKDYFPEPVTVSWNSGALTSGVHTFPAVLQSSGLYSLSSVVTVPSSSLGTQTYICNVNHKPSNTKVDKRVEPKSCDKTHTCPPCPAPEAAGGPSVFLFPPKPKDTLMISRTPEVTCVVVDVSHEDPEVKFNWYVDGVEVHNAKTKPREEQYNSTYRVVSVLTVLHQDWLNGKEYKCKVSNKALPAPIEKTISKAKGQPREPQVCTLPPSREEMTKNQVSLSCAVKGFYPSDIAVEWESNGQPENNYKTTPPVLDSDGSFFLVSKLTVDKSRWQQGNVFSCSVMHEALHNHYTQKSLSLSPG
light 1: DIVMTQSPDSLAVSLGERATINCKSSQSLLNSRTRKNYLAWYQQKPGQPPKLLIYWASTRQSGVPDRFSGSGSGTDFTLTISSLQAEDVAVYYCTQSHTLRTFGGGTKVEIKPDIQNPDPAVYQLRDSKSSDKSVCLFTDFDSQTQVSQSKDSDVYITDKCVLDMRSMDFKSNSAVAWSQKSDFACANAFQNSIIPEDTFFPAPESS
light 2: DIQMTQSPSTLSASVGDRVTITCRASQSISSWLAWYQQKPGKAPKLLIYKASTLASGVPSRFSGSGSGTEFTLTISSLQPDDFATYYCQHGYIRGDLDNVFGGGTKVEIKRTVAAPSVFIFPPSDEQLKSGTASVVCLLNNFYPREAKVQWKVDNALQSGNSQESVTEQDSKDSTYSLSSTLTLSKADYEKHKVYACEVTHQGLSSPVTKSFNRGEC
notes: Second-generation 1+1 bispecific, expressed in CHO-K1; also called Bispecific 2; 4-3ab (second generation)
Usually Kd stands for a measure of binding affinity in units of concentration. Take B2: the Kd was 840 pM in assay [6], 70 pM in [7], 9530 pM in assay [9] and 100 pM in [10]. Moreover, the EC50 in assay [8] is 1300 pM; in the assay with CD3 on Jurkat cells it was roughly 854000 pM. Also, in [11], the “Autologous monocyte killing EC50” value was 26 pM. In addition, in assay [11], the “T-cell cytotoxicity, MV4-11 EC50” value came out at 2.5 pM. The “T-cell cytotoxicity, THP-1 EC50” value in assay [11] came to 4.3 pM.

B3: 4ab3-4ab S91A (bispecific antibody, human IgG1, kappa, L234A L235A)
heavy 1: not shown
heavy 2: EVQLVESGGGLVQPGGSLRLSCAASGFSLSSSYWISWVRQAPGKGLEWIGSIDSGSVGITYYATWVKGRFTISRDNSKNTLYLQMNSLRAEDTAVYYCARHGDNWALDLWGQGTLVTVLEDLKNVFPPEVAVFEPSEAEISHTQKATLVCLATGFYPDHVELSWWVNGKEVHSGVCTDPQPLKEQPALQDSRYALSSRLRVSATFWQNPRNHFRCQVQFYGLSENDEWTQDRAKPVTQIVSAEAWGRASDKTHTCPPCPAPEAAGGPSVFLFPPKPKDTLMISRTPEVTCVVVDVSHEDPEVKFNWYVDGVEVHNAKTKPREEQYNSTYRVVSVLTVLHQDWLNGKEYKCKVSNKALPAPIEKTISKAKGQPREPQVCTLPPSREEMTKNQVSLSCAVKGFYPSDIAVEWESNGQPENNYKTTPPVLDSDGSFFLVSKLTVDKSRWQQGNVFSCSVMHEALHNHYTQKSLSLSPG
light 1: not shown
light 2: DIQMTQSPSTLSASVGDRVTITCRASQSISSWLAWYQQKPGKAPKLLIYKASTLASGVPSRFSGSGSGTEFTLTISSLQPDDFATYYCQHGYIRGDLDNVFGGGTKVEIKPDIQNPDPAVYQLRDSKSSDKSVCLFTDFDSQTQVSQSKDSDVYITDKCVLDMRSMDFKSNSAVAWSQKSDFACANAFQNSIIPEDTFFPAPESS
notes: Second-generation 2+1 bispecific, expressed in CHO-K1; also called Bispecific 1; 4ab3-4ab (second generation)
With B3, the Kd is 890 pM in assay [6], 260 pM in [7], 8820 pM in assay [9] and 70 pM in [10]. For the same molecule, the results for the EC50 (in [8]; with CD3 on Jurkat cells) were 700 pM and roughly 257000 pM, respectively. Besides, the “Autologous monocyte killing EC50” value in [11] is 5.9 pM. Further, in assay [11], the “T-cell cytotoxicity, MV4-11 EC50” value was determined as 0.034 pM. In addition, in assay [11], the “T-cell cytotoxicity, THP-1 EC50” value is 0.5 pM.
